Results reported in patent US12467929.

Columns and labels:
[1] = molecular target: recombinant UBE3A protein (Homo sapiens (Human)) (UniProt Q05086); test: 2-step Simoa; capture GTX; UBE3A 31.3 ng/ml
[2] = molecular target: recombinant UBE3A protein (Homo sapiens (Human)) (UniProt Q05086); test: 3-step Simoa; capture GTX; UBE3A 0.488 ng/ml
[3] = molecular target: recombinant UBE3A protein (Homo sapiens (Human)) (UniProt Q05086); test: 3-step Simoa; capture GTX; UBE3A 1.95 ng/ml
[4] = molecular target: recombinant UBE3A protein (Homo sapiens (Human)) (UniProt Q05086); test: Simoa; capture GTX + helper beads; 3E5 0.2 ug/ml; UBE3A 0.160 ng/ml
[5] = molecular target: recombinant UBE3A protein (Homo sapiens (Human)) (UniProt Q05086); test: Simoa head-to-head, Table 11; capture MS 2F6; UBE3A 100 ng/ml
[6] = molecular target: recombinant UBE3A protein (Homo sapiens (Human)) (UniProt Q05086); test: Simoa; capture GTX; 3E5 0.4 ug/ml; UBE3A 0.160 ng/ml
[7] = molecular target: recombinant UBE3A protein (Homo sapiens (Human)) (UniProt Q05086); test: Simoa head-to-head, Table 10; capture MS 2F6; UBE3A 0.032 ng/ml
[8] = molecular target: recombinant UBE3A protein (Homo sapiens (Human)) (UniProt Q05086); test: Simoa head-to-head, Table 10; capture MS 2F6; UBE3A 100 ng/ml

UniProt Q05086, sequence (Q05086 whole entry): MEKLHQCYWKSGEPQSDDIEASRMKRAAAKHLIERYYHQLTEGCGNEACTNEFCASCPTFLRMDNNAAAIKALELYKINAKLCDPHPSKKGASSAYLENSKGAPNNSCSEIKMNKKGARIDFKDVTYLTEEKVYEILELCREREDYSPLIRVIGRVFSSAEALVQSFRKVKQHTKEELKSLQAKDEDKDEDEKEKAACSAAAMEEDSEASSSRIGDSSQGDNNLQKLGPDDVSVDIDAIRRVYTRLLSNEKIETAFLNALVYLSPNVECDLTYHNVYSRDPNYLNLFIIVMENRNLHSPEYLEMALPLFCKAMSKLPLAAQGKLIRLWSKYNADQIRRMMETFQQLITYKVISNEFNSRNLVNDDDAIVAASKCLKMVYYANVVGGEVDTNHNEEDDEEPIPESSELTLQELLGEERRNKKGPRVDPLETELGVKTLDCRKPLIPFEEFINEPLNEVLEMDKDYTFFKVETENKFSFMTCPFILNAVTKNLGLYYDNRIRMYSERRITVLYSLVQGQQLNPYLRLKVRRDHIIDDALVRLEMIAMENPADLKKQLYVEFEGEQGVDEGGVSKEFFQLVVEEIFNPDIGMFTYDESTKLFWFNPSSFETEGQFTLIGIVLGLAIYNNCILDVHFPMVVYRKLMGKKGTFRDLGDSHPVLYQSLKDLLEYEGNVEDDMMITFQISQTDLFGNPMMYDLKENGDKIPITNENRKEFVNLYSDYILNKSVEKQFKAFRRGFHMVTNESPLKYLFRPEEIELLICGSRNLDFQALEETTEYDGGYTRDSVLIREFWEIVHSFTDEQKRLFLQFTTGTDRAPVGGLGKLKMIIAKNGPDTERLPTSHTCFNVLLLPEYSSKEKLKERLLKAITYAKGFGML

Substance: NB500-240 (Novus) (antibody)
- AEB1 [1]: 0.141
- AEB2 [1]: 0.126
- Ave AEB [1]: 0.134
- Signal to Background [1]: 40.8
- AEB1 [2]: 0.0023
- AEB2 [2]: 0.0026
- Ave AEB [2]: 0.0025
- Signal to Background [2]: 0.759
- AEB1 [3]: 0.0052
- AEB2 [3]: 0.0042
- Ave AEB [3]: 0.0047
- Signal to Background [3]: 1.44

Substance: anti-UBE3A antibody 3E5 (SAB1404508-100 ug, Millipore-Sigma)
- AEB1 [4]: 0.0751
- AEB2 [4]: 0.0703
- Average AEB [4]: 0.0727
- Signal to Background [4]: 7.51
- AEB1 [5]: 1.79
- AEB2 [5]: 1.84
- Ave AEB [5]: 1.81
- Signal to Background [5]: 479
- AEB1 [6]: 0.172
- AEB2 [6]: 0.165
- AEB3 [6]: 0.174
- Average AEB [6]: 0.171
- Signal to Background [6]: 2.72
- AEB1 [7]: 0.0162
- AEB2 [7]: 0.0146
- Ave AEB [7]: 0.0154
- Signal to Background [7]: 1.14
- AEB1 [8]: 2.71
- AEB2 [8]: 2.88
- Ave AEB [8]: 2.8
- Signal to Background [8]: 207
